Data reported in EP4480965A1, “TRANSFERRIN RECEPTOR-BINDING MOLECULES, CONJUGATES THEREOF AND THEIR USES TO PREVENT OR TREAT CNS DISEASES” (Vect-Horus, priority 2023, dated 2024).
Where two headings read alike, the source gives them in different places.

Tests used:
[1] = target: T1, human TfR (Homo sapiens, UniProt P02786); experiment: Flow cytometry apparent Kd (Kd app) on CHO cells expressing hTfR fused to EGFP; type: binding; details: bioconjugates (siGFPst1, NODAGA, 68Ga), 2 µM to 30 pM, 1 hr at 4°C
T1 construct: expressed in transfected cells
Description: After one wash in PBS/BSA 2%, cells were incubated for 1 hr with an anti-6His tag antibody (mouse), washed twice with PBS/BSA 2%, and incubated for 45 min with an Alexa647-conjugated anti-mouse secondary antibody. […] No labeling of the CHO WT control cells was detected with all the tested VHHs (not shown).
After one wash in PBS/BSA 2%, cells were incubated for 1 hr with an anti-6His tag antibody (mouse), washed twice with PBS/BSA 2%, and incubated for 45 min with an Alexa647-conjugated anti-mouse secondary antibody. […] Fluorescence levels were assessed using an Attune NxT Flow Cytometer (Thermo Fisher Scientific). […] No labeling of the CHO WT control cells was detected with all the tested VHHs (not shown).
The binding properties of VHHs with affinity for the TfR from different species (i.e., human (h), mouse (m) and rhesus monkey (rh)) were tested using flow cytometry, and apparent affinities (Kd app) were determined. […] CHO cell lines expressing the hTfR, mTfR or rhTfR fused to EGFP were saturated with PBS/BSA 2% solution during 30 min to avoid nonspecific binding, followed by incubation with purified VHHs at increasing concentrations for 1 hr. After one wash in PBS/BSA 2%, cells were incubated for 1 hr with an anti-6His tag antibody (mouse), washed twice with PBS/BSA 2%, and incubated for 1 hr with an Alexa647-conjugated anti-mouse secondary antibody. After two last washes in PBS/BSA 2%, cells were fixed by incubation for 15 min with PBS/PFA 2%, washed once with PBS and finally resuspended in PBS. Fluorescence levels were assessed using an Attune NxT flow cytometer (Thermo Fisher Scientific).

[2] = tested on: GFP; details: for reduction of GFP protein levels: 120 hrs at 37°C
Description: Third, the ability of the VHH A, once conjugated to siGFPst1, to trigger hTfR-mediated endocytosis and subsequent delivery into the cytosol of target cells in pharmacological amounts was assessed. The VHH A-siGFPst1 or the control VHH Z-siGFPst1 bioconjugates were incubated on CHO-hTfR-GFP cells at 1 µM during 120 hrs at 37°C to allow free uptake, delivery to the cytosol and gene silencing to take place at the mRNA transcript and protein levels. […] Next, the VHH A-siGFPst1 bioconjugate was incubated on CHO-hTfR-GFP cells at concentrations ranging from 3 µM to 10 pM during 120 hrs.
Fifth, the TfR-mediated GFP-silencing effect of the VHH A-siGFPst1 bioconjugate was evaluated using a pulse-chase procedure. CHO-hTfR-GFP cells were exposed to VHH A-siGFPst1 at concentrations ranging from 300 nM to 1 pM during a short duration (6 hours), followed by chase in ligand-free medium up to a total duration of 120 hrs.
Finally, the ability of the VHH B to trigger hTfR-mediated endocytosis and subsequent gene silencing was evaluated by incubating the VHH B-siGFPst1 bioconjugate on CHO-hTfR-GFP cells at 30 nM during 120 hrs. […] To the best of our knowledge, receptor-mediated hepatocyte uptake through the asialoglycoprotein receptor (ASGPR) using triantennary GalNAc as a targeting ligand is the only ligand/receptor system able to trigger specific and efficient gene silencing at nanomolar concentrations. However, the use of this system for in vivo therapeutic applications with therapeutic nucleic acids is restricted to hepatic targets, since ASGPR is expressed in vivo exclusively in hepatocytes.

[3] = tested on: GFP
Description: Second, the intrinsic silencing activity of the VHH-siGFPst1 bioconjugate was assessed in living CHO cell lines stably expressing the TfR fused to EGFP (CHO-hTfR-EGFP cells) by transfection of the conjugate at 25 nM using Dharmafect 1 (Dharmacon) for direct delivery into the cytosol. The total cellular amount of GFP was quantified 72 hours post-transfection using flow cytometry. […] In another series of experiments, the VHH A-siGFPst1 conjugate was transfected on CHO-hTfR-EGFP cells at concentrations ranging from 10 nM to 1 pM and the total cellular amount of GFP was quantified 120 hours post-transfection using flow cytometry.

T1 sequence (P02786 whole entry, the tested form may be a part): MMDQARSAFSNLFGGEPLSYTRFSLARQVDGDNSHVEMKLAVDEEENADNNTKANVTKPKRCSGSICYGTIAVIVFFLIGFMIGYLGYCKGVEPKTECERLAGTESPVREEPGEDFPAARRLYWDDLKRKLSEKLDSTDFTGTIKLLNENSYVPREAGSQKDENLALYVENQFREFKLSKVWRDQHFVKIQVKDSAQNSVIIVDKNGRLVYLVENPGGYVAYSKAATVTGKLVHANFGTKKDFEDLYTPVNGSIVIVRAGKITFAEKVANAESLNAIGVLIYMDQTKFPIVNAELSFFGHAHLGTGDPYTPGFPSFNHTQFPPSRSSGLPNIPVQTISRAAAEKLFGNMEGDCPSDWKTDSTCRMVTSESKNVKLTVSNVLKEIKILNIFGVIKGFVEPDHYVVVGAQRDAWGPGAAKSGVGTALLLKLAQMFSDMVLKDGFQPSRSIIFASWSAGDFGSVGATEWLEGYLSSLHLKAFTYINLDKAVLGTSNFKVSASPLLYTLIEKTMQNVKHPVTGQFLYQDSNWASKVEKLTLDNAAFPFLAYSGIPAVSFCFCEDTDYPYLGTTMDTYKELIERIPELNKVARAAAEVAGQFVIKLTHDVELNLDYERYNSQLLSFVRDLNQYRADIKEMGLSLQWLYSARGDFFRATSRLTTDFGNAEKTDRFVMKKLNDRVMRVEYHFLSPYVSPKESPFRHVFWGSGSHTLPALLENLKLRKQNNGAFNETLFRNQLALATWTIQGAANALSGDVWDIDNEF

B1: VHH A-siGFPst1: siGFPst1 conjugated to a tagged VHH A (conjugate)
VHH: EVQLVESGGGVVQPGGSLKLSCVASGTDFSINFIRWYRQAPGKQREFVAGFTATGNTNYADSMKGRFTISRDNTKNAVYLQIDSLKPEDTAVYYCYMLDKWGQGTQVTVSSAAAEQKLISEEDLNGAAHHHHHHGS
B1 was tested, and the “apparent hTfR-binding affinity (Kd app)” value [1] was “low nanomolar range”, the “GFP protein levels, % of the control levels” value ([2]; 30 nM with 100X excess of free VHH A, 120 hrs) was 85% and the “GFP protein levels, % of the control levels” value ([2]; 30 nM with 100X excess of free VHH B, 120 hrs) was 96%. For the same molecule, the “competition of the silencing effect” value ([2]; 30 nM with 100X excess of irrelevant VHH Z, 120 hrs) was “no competition”, the “reduction of GFP protein levels” value ([2]; free uptake, 30 nM) was “ca. 60%” and the “reduction of GFP protein levels” value ([2]; free uptake, 1 µM) was “ca. -70%”. It also gave a maximum silencing efficiency ([2]; free uptake, continuous 120 hrs) of -61.6 ± 2.9%, an IC50 ([3]; read-out: IC50 (reduction of GFP protein levels), transfection 10 nM to 1 pM, 120 hours) of 0.0504 nM and a maximum silencing efficiency ([3]; transfection 10 nM to 1 pM, 120 hours) of -90.2%. The “reduction of GFP protein levels” value ([3]; transfection at 25 nM, 72 hours post-transfection) was “ca. 85%”.

B2: VHH A-NODAGA: VHH A-azide reacted with NODAGA-BCN (conjugate)
VHH: EVQLVESGGGVVQPGGSLKLSCVASGTDFSINFIRWYRQAPGKQREFVAGFTATGNTNYADSMKGRFTISRDNTKNAVYLQIDSLKPEDTAVYYCYMLDKWGQGTQVTVSSAAAEQKLISEEDLNGAAHHHHHHGSAAAHHHHHHGGGLQR
In the case of B2, the “apparent hTfR-binding affinity (Kd app)” value [1] is reported as “low nanomolar range”.

B3: VHH A-68Ga: VHH A-NODAGA radiolabeled using 68Ga chloride (conjugate)
VHH: EVQLVESGGGVVQPGGSLKLSCVASGTDFSINFIRWYRQAPGKQREFVAGFTATGNTNYADSMKGRFTISRDNTKNAVYLQIDSLKPEDTAVYYCYMLDKWGQGTQVTVSSAAAEQKLISEEDLNGAAHHHHHHGSAAAHHHHHHGGGLQR
In the case of B3, the “apparent hTfR-binding affinity (Kd app)” value [1] is reported as “low nanomolar range”.

B4: VHH B-siGFPst1: siGFPst1 conjugated to VHH B (conjugate)
VHH: EVQLVESGGGVVQPGGSLRLSCAASGEIFSINFMRWYRQAPGKQREWVAGFTRDGSTNYPDSAKGRFTISRDNAKNTVYLQIDSLKPEDTAVYYCYMLDTWGQGTQVTVSSAAAEQKLISEEDLNGAAHHHHHHGS
For B4, the “apparent hTfR-binding affinity (Kd app)” value [1] was “low nanomolar range” and the “reduction of GFP protein levels” value ([2]; free uptake, 30 nM) was “ca. -60%”.
